# According to publication PMC2063226, “High-affinity recombinant phage antibodies to the pan-carcinoma marker epithelial glycoprotein-2 for tumour targeting” (British Journal of Cancer, 1998):
# Legend:
# [1] = target: recombinant epithelial glycoprotein-2 (EGP-2) (human) (UniProt P16422); assay: SPR; BIAcore; EGP-2 covalently coupled to a CM-5 sensorchip (350 RU, 'low-density' surface); antibody (at 200 nM) or antibody fragment flowed at 5 ul/min; koff fitted on t = 315-320 s (MOC-31 whole antibody: average of three fittings); kon from Ks against antibody concentration; room temperature; apparent values for the bivalent antibodies
# [2] = target: T1, recombinant epithelial glycoprotein-2 (EGP-2) (human, UniProt P16422); assay: as above; settings: both partners purified
# T1 construct: epithelial glycoprotein-2 (EGP-2, Ep-CAM), human; recombinant, expressed in the baculovirus system as described by Strassburg et al 1992 and Helfrich et al 1994; also called CO17-1A antigen; KSA; source: baculovirus system, purified; gift of Professor D Herlyn (the Wistar Institute)
# [3] = target: T1, recombinant epithelial glycoprotein-2 …
# Target sequence in this assay (P16422 24-265): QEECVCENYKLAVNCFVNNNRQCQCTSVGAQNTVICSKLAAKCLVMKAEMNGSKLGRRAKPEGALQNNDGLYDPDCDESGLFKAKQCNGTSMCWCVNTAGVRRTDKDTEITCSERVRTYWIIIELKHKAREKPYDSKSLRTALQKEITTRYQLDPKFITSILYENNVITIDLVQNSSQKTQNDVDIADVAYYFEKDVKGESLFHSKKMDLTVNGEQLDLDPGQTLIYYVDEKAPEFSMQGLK
# [4] = target: the molecule itself; assay: SEC; gel filtration (Superdex column) of the IMAC-purified scFv preparations; monomeric and dimeric forms separated
Molecule,koff [1],t1/2 [1],koff [2],kon [2],t1/2 [2],also measured
MOC-31 whole antibody,5e-05 s⁻¹,231 min,–,–,–,Ka [1]: 4.24e+08 M⁻¹; kon [1]: 106000 M⁻¹ s⁻¹
"323/A3 antibody (antibody, V domains shown, CDR3 identical); Murine whole bivalent antibody; source: gift from Dr SO Warnaar (Centocor, Leiden); copies: 2 + 2) VH: QIQLVQSGPELKKPGETVKISCKASGYTFTNYGMNWVRQASGEGLKWMGWINTYTGEPTYGEDFKGRFAFSLETSASTAYLQINNLKNEDTATYFCARFGNYVDYWGQGTTLTVSS VL: DIVMTQAAFSNPVTLGTSASISCRSSKNLLHSNGITYLYWYLQKPGQSPHLLIYQMSNLASGVPDRFSSSGSGTDFTLRISRVEAEDVGVYYCAQNLEIPRTFGGGTKLEIK",–,–,0.00106 s⁻¹,251000 M⁻¹ s⁻¹,10.9 min,–
"17-1A antibody (antibody, V domains shown, Murine whole bivalent antibody; also called 17-lA; source: gift from Dr SO Warnaar (Centocor, Leiden); copies: 2 + 2) VH: QVQLQQSGAELVRPGTSVKVSCKASGYAFTNYLIEWVKQRPGQGLEWIGVINPGSGGTNYNEKFKGKATLTADKSSSTAYMQLSSLTSDDSAVYFCARDGPWFAYWGQGTLVTVSA VL: NIVMTQSPKSMSMSVGERVTLTCKASENVVTYVSWYQQKPEQSPKLLIYGASNRYTGVPDRFTGSGSATDFTLTISSVQAEDLADYHCGQGYSYPYTFGGGTKLEIK",–,–,0.0382 s⁻¹,595000 M⁻¹ s⁻¹,0.3 min,–
"chimeric 17-1A (antibody, V domains shown, as the VH of m2 (17-1A); as the VL of m2 (17-1A); Whole bivalent antibody; also called chimeric version of 17-1A; source: gift from Dr SO Warnaar (Centocor, Leiden); copies: 2 + 2) VH: QVQLQQSGAELVRPGTSVKVSCKASGYAFTNYLIEWVKQRPGQGLEWIGVINPGSGGTNYNEKFKGKATLTADKSSSTAYMQLSSLTSDDSAVYFCARDGPWFAYWGQGTLVTVSA VL: NIVMTQSPKSMSMSVGERVTLTCKASENVVTYVSWYQQKPEQSPKLLIYGASNRYTGVPDRFTGSGSATDFTLTISSVQAEDLADYHCGQGYSYPYTFGGGTKLEIK",–,–,0.0583 s⁻¹,1.09e+06 M⁻¹ s⁻¹,0.2 min,–
"MOC-161 (antibody, V domains shown) VH: QVQLQQSGTELIRPGTSVKISCKASGYAFTDYWLGWVKHRPGHGLEWIGDIYPGSDNTYYHEKFKGKATLTTDKSSSTAYMQLSSLTSEDSAVYFCARGLKGDYWGQGTTVTVSS VL: DIQMTQSPSSLSAFSGGKVTITCKASQDIKKSIAWYQHKPGKGPRLLIHYTSTLQPGIPSRFSGSGSGEEYSFSISNLEPEDIATYYCQQYDNLRTFGGGTKLELK",–,–,–,–,–,binding result [3]: binds
"MOC-31 scFv (soluble) (scFv, 15-residue (Gly4Ser)3 linker, written out from the printed formula; The screening ELISA of the methods used clones in pCANTAB6 (His6 before c-myc); also called monovalent MOC-31 scFv; source: E. coli TG1, pUC119-polyHIS6myc, periplasm; purified (IMAC on Talon resin, gel filtration, monomer) for SPR; periplasmic preparation for immunohistochemistry; induced bacterial supernatant for ELISA; not …) scFv: QVQLQQSGPELKKPGETVKISCKASGYTFTNYGMNWVKQAPGKGLKWMGWINTYTGESTYADDFKGRFAFSLETSASAAYLQINNLKNEDTATYFCARFAIKGDYWGQGTTVTVSSGGGGSGGGGSGGGGSDIVLTQSPFSNPVTLGTSASISCRSTKSLLHSNGITYLYWYLQKPGQSPQLLIYQMSNLASGVPDRFSSSGSGTDFTLRISRVEAEDVGVYYCAQNLEIPRTFGGGTKLEIKR",0.00034 s⁻¹,34 min,–,–,–,binding result [4]: binds
